Experimental data as given in article PMC2693429.
pKd: −log10 of the molar value.

Experiments:
[1] = biological target: Recombinant Very Low Density Lipoprotein Receptor (VLDLR) ligand binding region; test: SPR; VLDLR immobilised on a CM5 BIAcore chip (~2,000 response units, amine coupling); analytes in 10 mM Hepes pH 7.4, 150 mM NaCl, 1 mM CaCl2, 0.005% Tween-20 at 20 μL/min; regeneration 100 mM H3PO4; blank cell as reference; 1:1 binding model
[2] = biological target: 6 × His-tagged PAI-2 lacking the intrahelical loop between C and D alpha-helices (PAI-2 ΔCD-loop), from pQE9 (human) (UniProt P05120); test: native MS; positive ion ESI-MS (Q-TOF); 10 μM protein in 10 mM ammonium acetate pH 6.8 with 0.1% formic acid; monomeric and dimeric species seen

Row | pKd [1] | koff [1] [s⁻¹] | kon [1] [M⁻¹ s⁻¹] | stoichiometry N [2] | Substance
1 | 8.36 | 0.00136 | 416000 |  | uPA:PAI-2 ΔCD-loop complex (from UniProt P05120 1-415)
2 |  |  |  | 2 | 6 × His-tagged PAI-2 lacking the intrahelical loop between C and D alpha-helices (PAI-2 ΔCD-loop), from pQE9 (from UniProt P05120 1-415) (natural protein)
3 | 8.32 | 0.00144 | 375000 |  | uPA:PAI-2 wild-type complex (from UniProt P05120 1-415)
